We go through 61 sequences from the supplement of paper PMC7877785.

± gives the uncertainty stated by the source.

A short description of this data set: self-splicing fitness, log relative to wild type (ln ratio); higher = more splicing; Tetrahymena group I intron in knt gene, E. coli kanamycin selection, DiMSum; sequences stand for … in CUCUCU…GGAGGGAAAAGUUAUCAGGCAUGCACCUGGUAGCUAGUCUUUAAACCAAUAGAUUGCAUCGGUUUAAAAGGCAAGACCGUCAAAUUGCGGGAAAGGGGUCAACAGCCGUUCAGUACCAAGUCUCAGGGGAAACUUUGAGAUGGCCUUGCAAAGGGUAUGGUAAUAAGCUGACGGACAUGGUCCUAACCACGCAGCCAAGUCCUAAGUCAACAGAUCUUCUGUUGAUAUGGAUGCAGUUCACAGACUAAAUGUCGGUCGGGGAAGAUGUAUUCUUCUCAUAAGAUAUAGUCGGACCUCUCCUUAAUGGGAGCUAGCGGAUGAAGUGAUGCAACACUGGAGCCGCUGGGAACUAAUUUGUAUGCGAAAGUAUAUUGAUUAGUUUUGGAGUACUCGUGGUCG
Summed up: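 Six replicate transformations of E. coli BL21(DE3) with a pET-22b(+) library were grown overnight at 37°C or 30°C. The library randomised all eight P1ex-region intron nucleotides, the intron lying in the knt kanamycin-resistance gene, and plates were LB agar with or without 25 μg/mL kanamycin plus 100 μg/mL carbenicillin, 50 μM IPTG and 0.2% rhamnose. Pooled colonies were amplicon-sequenced on an Illumina HiSeq 2500, and fitness is the DiMSum error-weighted combination of wild-type-normalised replicate fold changes, kanamycin versus none.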

Take AAGAAGCAAUAUUACGCGAG: the “self-splicing fitness (ln)” value reads like this: (30 °C) -0.936 ± 0.081; (37 °C) -0.561 ± 0.1.

As for UGGAAGCAAUAUUACGGUAA, the “self-splicing fitness (ln)” value (30 °C) was -1.48 ± 0.18 and the “self-splicing fitness (ln)” value (37 °C) was -0.845 ± 0.14.

Regarding CAGUAGCAAUAUUACGAGUC, the “self-splicing fitness (ln)” value (30 °C) is -4.27 ± 0.27 and the “self-splicing fitness (ln)” value (37 °C) is -2.36 ± 0.17.

Regarding GGGUAGCAAUAUUACGGCGU, the “self-splicing fitness (ln)” value was -0.56 ± 0.13 (30 °C) and -0.386 ± 0.12 (37 °C).

Turning to GGUAAGCAAUAUUACGACAC, the “self-splicing fitness (ln)” value is -0.00191 ± 0.13 (30 °C) and 0.285 ± 0.19 (37 °C).

For UUACAGCAAUAUUACGCUGU, the “self-splicing fitness (ln)” value is -3.49 ± 0.27 (30 °C) and -2.37 ± 0.34 (37 °C).

Consider UUGUAGCAAUAUUACGGGGG, for which the “self-splicing fitness (ln)” value (30 °C) is -2.82 ± 0.41.

For the sequence CAGAAGCAAUAUUACGUCUA, the “self-splicing fitness (ln)” value is, setting by setting: (30 °C) -0.102 ± 0.07; (37 °C) 0.782 ± 0.11.

As for UUAGAGCAAUAUUACGGAUC, the “self-splicing fitness (ln)” value (37 °C) was -1.56 ± 0.4.

As to AUGCAGCAAUAUUACGAGUA, the “self-splicing fitness (ln)” value by setting is: (30 °C) -2.98 ± 0.19; (37 °C) -1.53 ± 0.13.

Turning to CUACAGCAAUAUUACGUGAG, the “self-splicing fitness (ln)” value was -0.958 ± 0.058 (30 °C) and -0.926 ± 0.086 (37 °C).

Take CAGCAGCAAUAUUACGAUAA: the “self-splicing fitness (ln)” value by setting is: (30 °C) -3.08 ± 0.14; (37 °C) -2.24 ± 0.13.

AACUAGCAAUAUUACGGCCG: the “self-splicing fitness (ln)” value runs as follows: (30 °C) -0.725 ± 0.1; (37 °C) 0.273 ± 0.13.

ACCCAGCAAUAUUACGGUCU: the “self-splicing fitness (ln)” value (30 °C) is -1.12 ± 0.038 and the “self-splicing fitness (ln)” value (37 °C) was -0.171 ± 0.052.

For ACCGAGCAAUAUUACGACAA, the “self-splicing fitness (ln)” value (30 °C) was -2.37 ± 0.22 and the “self-splicing fitness (ln)” value (37 °C) is -2.4 ± 0.26.

Take GGAGAGCAAUAUUACGUCAG: the “self-splicing fitness (ln)” value is, setting by setting: (30 °C) -3.34 ± 0.22; (37 °C) -1.75 ± 0.21.

With UAGCAGCAAUAUUACGAGGG, the “self-splicing fitness (ln)” value by setting is: (30 °C) -1.97 ± 0.21; (37 °C) -1.96 ± 0.27.

Regarding UAGGAGCAAUAUUACGGCAG, the “self-splicing fitness (ln)” value is -3.1 ± 0.37 (30 °C) and -0.425 ± 0.25 (37 °C).

Take UUAUAGCAAUAUUACGCUAC: the “self-splicing fitness (ln)” value (37 °C) is -1.33 ± 0.45.

On to AACCAGCAAUAUUACGACUA, for which the “self-splicing fitness (ln)” value (30 °C) turned out to be 0.0905 ± 0.084 and the “self-splicing fitness (ln)” value (37 °C) is -0.0751 ± 0.079.

CUUGAGCAAUAUUACGGUCA: the “self-splicing fitness (ln)” value is, setting by setting: (30 °C) -1.65 ± 0.18; (37 °C) -3.58 ± 0.46.

Turning to CCUCAGCAAUAUUACGAGGA, the “self-splicing fitness (ln)” value runs as follows: (30 °C) -2.54 ± 0.29; (37 °C) -1.09 ± 0.14.

Consider UAGCAGCAAUAUUACGGCUG, for which the “self-splicing fitness (ln)” value is -3.72 ± 0.35 (30 °C) and -2.64 ± 0.28 (37 °C).

For CGUAAGCAAUAUUACGUGAG, the “self-splicing fitness (ln)” value runs as follows: (30 °C) -2.17 ± 0.11; (37 °C) -1.09 ± 0.092.

As for GAUAAGCAAUAUUACGCCCA, the “self-splicing fitness (ln)” value by setting is: (30 °C) -0.168 ± 0.13; (37 °C) -0.865 ± 0.14.

As to UUACAGCAAUAUUACGAUGU, the “self-splicing fitness (ln)” value (30 °C) was -4.69 ± 0.39 and the “self-splicing fitness (ln)” value (37 °C) is -2.86 ± 0.23.

UGUGAGCAAUAUUACGCUAC: for the setting “30 °C”, the “self-splicing fitness (ln)” value is -3 ± 0.32.

For CUCAAGCAAUAUUACGAAAA, the “self-splicing fitness (ln)” value reads like this: (30 °C) -3.12 ± 0.28; (37 °C) -2.65 ± 0.28.

For GCACAGCAAUAUUACGGACU, the “self-splicing fitness (ln)” value was -0.665 ± 0.082 (30 °C) and -0.54 ± 0.086 (37 °C).

Take GCAUAGCAAUAUUACGCAGG: the “self-splicing fitness (ln)” value (30 °C) was -2.58 ± 0.21 and the “self-splicing fitness (ln)” value (37 °C) was -1.35 ± 0.22.

CCUGAGCAAUAUUACGGGGA: the “self-splicing fitness (ln)” value is, setting by setting: (30 °C) -3.07 ± 0.15; (37 °C) -3.37 ± 0.2.

As for AUAUAGCAAUAUUACGUCCG, for the setting “37 °C”, the “self-splicing fitness (ln)” value was -1.64 ± 0.43.

Regarding AUCAAGCAAUAUUACGGGUC, the “self-splicing fitness (ln)” value by setting is: (30 °C) -3.33 ± 0.29; (37 °C) -2.19 ± 0.27.

For the sequence GAUAAGCAAUAUUACGUCGG, the “self-splicing fitness (ln)” value (30 °C) is -3.81 ± 0.35 and the “self-splicing fitness (ln)” value (37 °C) is -3.35 ± 0.28.

Consider UGUAAGCAAUAUUACGCUCG, for which the “self-splicing fitness (ln)” value (30 °C) is -1.1 ± 0.11 and the “self-splicing fitness (ln)” value (37 °C) was -0.752 ± 0.13.

In the case of CAACAGCAAUAUUACGACAA, the “self-splicing fitness (ln)” value was -3.37 ± 0.21 (30 °C) and -2.29 ± 0.14 (37 °C).

On to GUUAAGCAAUAUUACGGUUA, for which the “self-splicing fitness (ln)” value by setting is: (30 °C) -1.33 ± 0.096; (37 °C) -0.554 ± 0.096.

As to UCUAAGCAAUAUUACGAGGU, the “self-splicing fitness (ln)” value (30 °C) is -2.8 ± 0.27 and the “self-splicing fitness (ln)” value (37 °C) is -0.819 ± 0.17.

CUGAAGCAAUAUUACGUUGC: the “self-splicing fitness (ln)” value (30 °C) was -4.09 ± 0.26 and the “self-splicing fitness (ln)” value (37 °C) is -0.264 ± 0.2.

Regarding AACUAGCAAUAUUACGACGG, the “self-splicing fitness (ln)” value is, setting by setting: (30 °C) -2.21 ± 0.14; (37 °C) -0.86 ± 0.21.

UGAAAGCAAUAUUACGAUGG: the “self-splicing fitness (ln)” value was -1.59 ± 0.086 (30 °C) and -0.618 ± 0.11 (37 °C).

Turning to UAAUAGCAAUAUUACGGGGC, the “self-splicing fitness (ln)” value (30 °C) was -3.12 ± 0.31 and the “self-splicing fitness (ln)” value (37 °C) is -2.84 ± 0.31.

Regarding GUAUAGCAAUAUUACGGGUC, the “self-splicing fitness (ln)” value is -1.89 ± 0.2 (30 °C) and -1.62 ± 0.39 (37 °C).

Regarding CAGGAGCAAUAUUACGGGGU, the “self-splicing fitness (ln)” value is -3.38 ± 0.23 (30 °C) and -2.19 ± 0.24 (37 °C).

In the case of ACAAAGCAAUAUUACGAUGU, the “self-splicing fitness (ln)” value is, setting by setting: (30 °C) -3.56 ± 0.11; (37 °C) -2.43 ± 0.12.

With CCCGAGCAAUAUUACGUCCU, the “self-splicing fitness (ln)” value runs as follows: (30 °C) -3.97 ± 0.39; (37 °C) -2.75 ± 0.39.

Turning to CCCCAGCAAUAUUACGCCCU, the “self-splicing fitness (ln)” value (30 °C) is -4.24 ± 0.39 and the “self-splicing fitness (ln)” value (37 °C) was -1.98 ± 0.28.

As for UCCCAGCAAUAUUACGCUCU, the “self-splicing fitness (ln)” value reads like this: (30 °C) -2.77 ± 0.16; (37 °C) -1.7 ± 0.17.

In the case of UUAAAGCAAUAUUACGGAAG, the “self-splicing fitness (ln)” value runs as follows: (30 °C) -1.67 ± 0.087; (37 °C) -0.452 ± 0.11.

As to CGUCAGCAAUAUUACGAGGG, the “self-splicing fitness (ln)” value was -3.93 ± 0.1 (30 °C) and -1.81 ± 0.099 (37 °C).

As for AGUCAGCAAUAUUACGCAUG, the “self-splicing fitness (ln)” value by setting is: (30 °C) -2.04 ± 0.14; (37 °C) -1.12 ± 0.13.

With GGGUAGCAAUAUUACGCACU, the “self-splicing fitness (ln)” value by setting is: (30 °C) -3.8 ± 0.47; (37 °C) -0.577 ± 0.29.

With GAUCAGCAAUAUUACGUUGG, the “self-splicing fitness (ln)” value was -3.67 ± 0.24 (30 °C) and -0.912 ± 0.12 (37 °C).

For the sequence CGUGAGCAAUAUUACGCAGG, the “self-splicing fitness (ln)” value (30 °C) is -1.54 ± 0.11 and the “self-splicing fitness (ln)” value (37 °C) is -2.14 ± 0.15.

For the sequence CGCCAGCAAUAUUACGAACA, the “self-splicing fitness (ln)” value (30 °C) is -3.55 ± 0.26 and the “self-splicing fitness (ln)” value (37 °C) was -0.716 ± 0.11.

In the case of CCCCAGCAAUAUUACGGGGG, the “self-splicing fitness (ln)” value by setting is: (30 °C) -4.74 ± 0.16; (37 °C) -2.67 ± 0.12.

With UAAUAGCAAUAUUACGAUAA, the “self-splicing fitness (ln)” value reads like this: (30 °C) -3.33 ± 0.2; (37 °C) -1.78 ± 0.16.

In the case of AUAAAGCAAUAUUACGCCGA, the “self-splicing fitness (ln)” value (30 °C) is -1.06 ± 0.077 and the “self-splicing fitness (ln)” value (37 °C) stood at 0.123 ± 0.11.

For the sequence UGGGAGCAAUAUUACGCUGG, the “self-splicing fitness (ln)” value was -1.91 ± 0.29 (30 °C) and -1.55 ± 0.35 (37 °C).

GCUUAGCAAUAUUACGGUCU: the “self-splicing fitness (ln)” value (30 °C) was -0.834 ± 0.083 and the “self-splicing fitness (ln)” value (37 °C) was -0.0218 ± 0.11.

GGGCAGCAAUAUUACGUUUU: the “self-splicing fitness (ln)” value (30 °C) was -0.77 ± 0.046 and the “self-splicing fitness (ln)” value (37 °C) was found to be 0.221 ± 0.063.
